Biological target: adeno-associated virus (AAV)-DJ capsid protein
Test: cryo-EM structure

Question: For “adeno-associated virus (AAV)-DJ capsid protein”, which stoichiometry N is on record?
Answer: 60

From publication PMC5415311
